Results reported in paper PMC3865722 (2014).

Experiments:
Experiment in all cases: competitive inhibition of Tra2β
[1] = biological target: T1, Tra2β(ΔN/RRM) C-terminal RS domain (Homo sapiens, UniProt P62995)
T1 chain: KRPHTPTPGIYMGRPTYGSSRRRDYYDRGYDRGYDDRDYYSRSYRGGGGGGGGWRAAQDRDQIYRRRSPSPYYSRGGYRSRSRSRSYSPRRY

[2] = biological target: T2, Tra2β(ΔN/RS2) RRM and N-terminal half of C-terminal RS domain (Homo sapiens, UniProt P62995)
T2 chain: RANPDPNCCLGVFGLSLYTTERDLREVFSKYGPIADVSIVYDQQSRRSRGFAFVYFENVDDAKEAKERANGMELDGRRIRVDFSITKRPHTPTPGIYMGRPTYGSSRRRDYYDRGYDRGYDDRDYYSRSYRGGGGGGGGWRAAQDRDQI

Tra2β(ΔN) 114-288 = biological target: T3, Tra2β(ΔN) 114-288 (Homo sapiens, UniProt P62995)
T3 chain: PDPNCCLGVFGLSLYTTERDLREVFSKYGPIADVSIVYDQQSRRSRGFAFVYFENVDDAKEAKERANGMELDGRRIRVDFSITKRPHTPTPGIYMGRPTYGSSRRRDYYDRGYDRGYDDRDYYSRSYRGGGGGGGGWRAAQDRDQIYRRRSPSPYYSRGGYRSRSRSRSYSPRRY

- Ki [1]: 45 nM
- Ki [2]: 180 nM
- Ki (Tra2β(ΔN) 114-288): 11 nM
B1: SRPK1 (protein)
chain: MERKVLALQARKKRTKAKKDKAQRKSETQHRGSAPHSESDLPEQEEEILGSDDDEQEDPNDYCKGGYHLVKIGDLFNGRYHVIRKLGWGHFSTVWLSWDIQGKKFVAMKVVKSAEHYTETALDEIRLLKSVRNSDPNDPNREMVVQLLDDFKISGVNGTHICMVFEVLGHHLLKWIIKSNYQGLPLPCVKKIIQQVLQGLDYLHTKCRIIHTDIKPENILLSVNEQYIRRLAAEATEWQRSGAPPPSGSAVSTAPQPKPADKMSKNKKKKLKKKQKRQAELLEKRMQEIEEMEKESGPGQKRPNKQEESESPVERPLKENPPNKMTQEKLEESSTIGQDQTLMERDTEGGAAEINCNGVIEVINYTQNSNNETLRHKEDLHNANDCDVQNLNQESSFLSSQNGDSSTSQETDSCTPITSEVSDTMVCQSSSTVGQSFSEQHISQLQESIRAEIPCEDEQEQEHNGPLDNKGKSTAGNFLVNPLEPKNAEKLKVKIADLGNACWVHKHFTEDIQTRQYRSLEVLIGSGYNTPADIWSTACMAFELATGDYLFEPHSGEEYTRDEDHIALIIELLGKVPRKLIVAGKYSKEFFTKKGDLKHITKLKPWGLFEVLVEKYEWSQEEAAGFTDFLLPMLELIPEKRATAAECLRHPWLNS
